We go through 1 protein from article PMC3527552.

The nature of the series: cell lysate anti-HA Western blot. To be noted: glycan lost; control: untreated.

B1: OATP1B1: tunicamycin 0.5 μg/ml, 42 h (protein)
parent chain: MDQNQHLNKTAEAQPSENKKTRYCNGLKMFLAALSLSFIAKTLGAIIMKSSIIHIERRFEISSSLVGFIDGSFEIGNLLVIVFVSYFGSKLHRPKLIGIGCFIMGIGGVLTALPHFFMGYYRYSKETNINSSENSTSTLSTCLINQILSLNRASPEIVGKGCLKESGSYMWIYVFMGNMLRGIGETPIVPLGLSYIDDFAKEGHSSLYLGILNAIAMIGPIIGFTLGSLFSKMYVDIGYVDLSTIRITPTDSRWVGAWWLNFLVSGLFSIISSIPFFFLPQTPNKPQKERKASLSLHVLETNDEKDQTANLTNQGKNITKNVTGFFQSFKSILTNPLYVMFVLLTLLQVSSYIGAFTYVFKYVEQQYGQPSSKANILLGVITIPIFASGMFLGGYIIKKFKLNTVGIAKFSCFTAVMSLSFYLLYFFILCENKSVAGLTMTYDGNNPVTSHRDVPLSYCNSDCNCDESQWEPVCGNNGITYISPCLAGCKSSSGNKKPIVFYNCSCLEVTGLQNRNYSAHLGECPRDDACTRKFYFFVAIQVLNLFFSALGGTSHVMLIVKIVQPELKSLALGFHSMVIRALGGILAPIYFGALIDTTCIKWSTNNCGTRGSCRTYNSTSFSRVYLGLSSMLRVSSLVLYIILIYAMKKKYQEKDINASENGSVMDEANLESLNKNKHFVPSAGADSETHC
With B1, the expression_or_secretion result is on record as “decreases”.
